According to patent US20250066503A1, “CELL INJURY INDUCING THERAPEUTIC DRUG FOR USE IN CANCER THERAPY” (CHUGAI SEIYAKU KABUSHIKI KAISHA, priority 2016, published 2025):
Numbering of substitutions follows the chain as printed.

B1: H0610-G1dh/none-Hi-Kn010G3/TR01L008-k0 (antibody, V domains shown)
VH: QVQLVQSGAEVKKPGASVKVSCKASGYTFTDYEMHWIRQPPGQGLEWIGAIDGKTPDTAYSQKFKGRVTLTADKSTSTAYMELSSLTSEDTAVYYCTRFYSYTYWGQGTLVTVSS
VL: DIVMTQSPLSLPVTPGEPASISCQASESLVHSNRNTYLHWYQQKPGQAPRLLIYKVSNRFRGVPDRFSGSGSGTDFTLKISRVEAEDVGVYYCGQGTQVPYTFGQGTKLEIK
notes: one-arm
B2: GCH025-G1dh/none-Hi-Kn010G3/L0000-k0 (antibody, V domains shown)
VH: B1 VH with K19T, Q43E, K54E
VL: DIVMTQSPLSLPVTPGEPASISCRSSQSLVHSNRNTYLHWYQQKPGQAPRLLIYKVSNRFSGVPDRFSGSGSGTDFTLKISRVEAEDVGVYYCGQGTQVPYTFGQGTKLEIKR
notes: one-arm
B3: GCH040-G1dh/none-Hi-Kn010G3/L0000-k0 (antibody, V domains shown)
VH: B1 VH with S85E
VL: B2 VL
notes: one-arm
B4: H0610-G1dh/none-Hi-Kn010G3/TR01L012-k0 (antibody, V domains shown)
VH: B1 VH
VL: B1 VL with Q24R, A25S, E27Q, Q42L, A48S, R50Q, L109V, K112E
notes: one-arm
B5: H0610-G1dh/none-Hi-Kn010G3/TR01L018-k0 (antibody, V domains shown)
VH: B1 VH
VL: B1 VL with L29P, Q42L, A48S, R50Q, R61S
notes: one-arm
B6: H0610-G1dh/none-Hi-Kn010G3/TR01L010-k0 (antibody, V domains shown)
VH: B1 VH
VL: B1 VL with Q24R, A25S, E27Q, L109V, K112E
notes: one-arm
B7: GCH015-G1dh/none-Hi-Kn010G3/L0000-k0 (antibody, V domains shown)
VH: B1 VH with S61E, Q62E, K63S
VL: B2 VL
notes: one-arm
B8: GCH053-G1dh/none-Hi-Kn010G3/L0000-k0 (antibody, V domains shown)
VH: B1 VH with K19T, Q43E, K54E, S61E
VL: B2 VL
notes: one-arm
B9: GCH054-G1dh/none-Hi-Kn010G3/L0212-k0 (antibody, V domains shown)
VH: B1 VH with K19T, Q43E, K54E, Q62E
VL: B2 VL with S25P, L29P, G94Y
notes: one-arm
B10: GCH027-G1dh/none-Hi-Kn010G3/L0000-k0 (antibody, V domains shown)
VH: B1 VH with T28E
VL: B2 VL
notes: one-arm
B11: GCH055-G1dh/none-Hi-Kn010G3/L0212-k0 (antibody, V domains shown)
VH: B1 VH with K19T, Q43E, K54E, Q62D
VL: B2 VL with S25P, L29P, G94Y
notes: one-arm
B12: GCH013-G1dh/none-Hi-Kn010G3/L0000-k0 (antibody, V domains shown)
VH: B1 VH with K19T, S61E
VL: B2 VL
notes: one-arm
B13: GCH056-G1dh/none-Hi-Kn010G3/L0000-k0 (antibody, V domains shown)
VH: B1 VH with K19T, Q43E, K54E, K65E
VL: B2 VL
notes: one-arm
B14: GCH035-G1dh/none-Hi-Kn010G3/L0000-k0 (antibody, V domains shown)
VH: B1 VH with T69E
VL: B2 VL
notes: one-arm
B15: GCH054-G1dh/none-Hi-Kn010G3/L0222-k0 (antibody, V domains shown)
VH: B1 VH with K19T, Q43E, K54E, Q62E
VL: B2 VL with L29P, L38I, H39Q, G94Y
notes: one-arm
B16: GCH054-G1dh/none-Hi-Kn010G3/L0201-k0 (antibody, V domains shown)
VH: B1 VH with K19T, Q43E, K54E, Q62E
VL: B2 VL with S28P, L29P
notes: one-arm
B17: H0610-G1dh/none-Hi-Kn010G3/TR01L020-k0 (antibody, V domains shown)
VH: B1 VH
VL: B1 VL with L29P, L38I, H39Q, Q42L, A48S, R50Q, R61S, G94Y
notes: one-arm
B18: GCH045-G1dh/none-Hi-Kn010G3/L0000-k0 (antibody, V domains shown)
VH: B1 VH with V93E
VL: B2 VL
notes: one-arm
B19: GCH016-G1dh/none-Hi-Kn010G3/L0000-k0 (antibody, V domains shown)
VH: B1 VH with S61E, K65Q, G66D
VL: B2 VL
notes: one-arm
B20: GCH054-G1dh/none-Hi-Kn010G3/L0203-k0 (antibody, V domains shown)
VH: B1 VH with K19T, Q43E, K54E, Q62E
VL: B2 VL with L29P, L38I
notes: one-arm
B21: GCH006-G1dh/none-Hi-Kn010G3/L0000-k0 (antibody, V domains shown)
VH: B1 VH with S61E
VL: B2 VL
notes: one-arm
B22: GCH054-G1dh/none-Hi-Kn010G3/L0000-k0 (antibody, V domains shown)
VH: B1 VH with K19T, Q43E, K54E, Q62E
VL: B2 VL
notes: one-arm
B23: GCH008-G1dh/none-Hi-Kn010G3/L0000-k0 (antibody, V domains shown)
VH: B1 VH with K54E
VL: B2 VL
notes: one-arm
B24: GCH022-G1dh/none-Hi-Kn010G3/L0000-k0 (antibody, V domains shown)
VH: B1 VH with K19T, K54E
VL: B2 VL
notes: one-arm
B25: GCH014-G1dh/none-Hi-Kn010G3/L0000-k0 (antibody, V domains shown)
VH: B1 VH with Q43E, S61E
VL: B2 VL
notes: one-arm
B26: GCH029-G1dh/none-Hi-Kn010G3/L0000-k0 (antibody, V domains shown)
VH: B1 VH with T30E
VL: B2 VL
notes: one-arm
B27: GCH039-G1dh/none-Hi-Kn010G3/L0000-k0 (antibody, V domains shown)
VH: B1 VH with S84E
VL: B2 VL
notes: one-arm
B28: GCH026-G1dh/none-Hi-Kn010G3/L0000-k0 (antibody, V domains shown)
VH: B1 VH with K54E, Q62E, K63S
VL: B2 VL
notes: one-arm
B29: H0610-G1dh/none-Hi-Kn010G3/TR01L009-k0 (antibody, V domains shown)
VH: B1 VH
VL: B1 VL with Q24R, A25S, E27Q, Q42L, A48S, R50Q
notes: one-arm
B30: GCH042-G1dh/none-Hi-Kn010G3/L0000-k0 (antibody, V domains shown)
VH: B1 VH with S88E
VL: B2 VL
notes: one-arm
B31: GCH034-G1dh/none-Hi-Kn010G3/L0000-k0 (antibody, V domains shown)
VH: B1 VH with K65E
VL: B2 VL
notes: one-arm
B32: H0610-G1dh/none-Hi-Kn010G3/TR01L011-k0 (antibody, V domains shown)
VH: B1 VH
VL: B1 VL with L109V, K112E
notes: one-arm
B33: GCH023-G1dh/none-Hi-Kn010G3/L0000-k0 (antibody, V domains shown)
VH: B1 VH with Q43E, K54E
VL: B2 VL
notes: one-arm
B34: GCH010-G1dh/none-Hi-Kn010G3/L0000-k0 (antibody, V domains shown)
VH: B1 VH with K54D, S61E
VL: B2 VL
notes: one-arm
B35: GCH003-G1dh/none-Hi-Kn010G3/L0000-k0 (antibody, V domains shown)
VH: B1 VH with K54D
VL: B2 VL
notes: one-arm
B36: GCH007-G1dh/none-Hi-Kn010G3/L0000-k0 (antibody, V domains shown)
VH: B1 VH with Q62D
VL: B2 VL
notes: one-arm
B37: GCH055-G1dh/none-Hi-Kn010G3/L0222-k0 (antibody, V domains shown)
VH: B1 VH with K19T, Q43E, K54E, Q62D
VL: B2 VL with L29P, L38I, H39Q, G94Y
notes: one-arm
B38: GCH043-G1dh/none-Hi-Kn010G3/L0000-k0 (antibody, V domains shown)
VH: B1 VH with T91E
VL: B2 VL
notes: one-arm
B39: GCH019-G1dh/none-Hi-Kn010G3/L0000-k0 (antibody, V domains shown)
VH: B1 VH with K19T, Q43E, S61E
VL: B2 VL
notes: one-arm
B40: H0610-G1dh/none-Hi-Kn010G3/TR01L017-k0 (antibody, V domains shown)
VH: B1 VH
VL: DIVMTQSPLSLPVTPGEPASISCRSSQSPVHSNRNTYIQWYLQKPGQSPQLLIYKVSNRFSGVPDRFSGSGSGTDFTLKISRVEAEDVGVYYCYQGTQVPYTFGQGTKLEIK
notes: one-arm
B41: H0610-G1dh/none-Hi-Kn010G3/TR01L019-k0 (antibody, V domains shown)
VH: B1 VH
VL: B40 VL with R24Q, S25A, Q27E, I38L, Q39H
notes: one-arm
B42: H0610-G1dh/none-Hi-Kn010G3/TR01L015-k0 (antibody, V domains shown)
VH: B1 VH
VL: B40 VL with I38L, Q39H, Y94G
notes: one-arm
B43: GCH055-G1dh/none-Hi-Kn010G3/L0000-k0 (antibody, V domains shown)
VH: B1 VH with K19T, Q43E, K54E, Q62D
VL: B2 VL
notes: one-arm
B44: GCH012-G1dh/none-Hi-Kn010G3/L0000-k0 (antibody, V domains shown)
VH: B1 VH with Y60E, S61E
VL: B2 VL
notes: one-arm
B45: H0610-G1dh/none-Hi-Kn010G3/TR01L016-k0 (antibody, V domains shown)
VH: B1 VH
VL: B40 VL with I38L, Q39H
notes: one-arm
B46: GCH005-G1dh/none-Hi-Kn010G3/L0000-k0 (antibody, V domains shown)
VH: B1 VH with Y60E
VL: B2 VL
notes: one-arm
B47: GCH032-G1dh/none-Hi-Kn010G3/L0000-k0 (antibody, V domains shown)
VH: B1 VH with Q62E
VL: B2 VL
notes: one-arm
B48: GCH025-G1dh/none-Hi-Kn010G3/L0204-k0 (antibody, V domains shown)
VH: B1 VH with K19T, Q43E, K54E
VL: B2 VL with L29P, S61R
notes: one-arm

molecular target: T1, human GPC3 (human, UniProt P51654 25-563); test: SPR
T1 construct: range 25-563; soluble analyte; also called soluble human GPC3; glypican 3
T1 sequence (P51654 25-563 limits assumed): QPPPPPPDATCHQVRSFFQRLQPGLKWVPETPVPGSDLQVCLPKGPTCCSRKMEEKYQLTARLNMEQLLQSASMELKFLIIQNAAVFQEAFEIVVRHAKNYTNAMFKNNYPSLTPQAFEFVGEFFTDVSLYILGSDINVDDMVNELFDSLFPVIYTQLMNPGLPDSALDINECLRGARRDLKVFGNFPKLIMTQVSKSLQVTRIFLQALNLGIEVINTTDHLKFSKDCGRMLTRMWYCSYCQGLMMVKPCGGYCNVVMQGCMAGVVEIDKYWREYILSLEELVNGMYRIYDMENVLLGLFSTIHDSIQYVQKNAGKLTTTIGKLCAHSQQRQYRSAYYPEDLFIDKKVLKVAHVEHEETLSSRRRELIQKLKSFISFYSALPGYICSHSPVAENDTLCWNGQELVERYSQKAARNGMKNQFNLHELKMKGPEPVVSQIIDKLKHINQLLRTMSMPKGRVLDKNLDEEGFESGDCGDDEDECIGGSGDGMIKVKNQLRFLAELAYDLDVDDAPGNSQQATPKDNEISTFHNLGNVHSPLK

Row | Binder | Kd [nM]
1 | B1 | 3.48
2 | B2 | 5.05
3 | B3 | 4.8
4 | B4 | 4.25
5 | B5 | 2.17
6 | B6 | 2.92
7 | B7 | 4.14
8 | B8 | 4.05
9 | B9 | 0.517
10 | B10 | 3.83
11 | B11 | 0.614
12 | B12 | 4.44
13 | B13 | 5.03
14 | B14 | 4.94
15 | B15 | 0.0315
16 | B16 | 1.08
17 | B17 | 0.0224
18 | B18 | 4.63
19 | B19 | 4.59
20 | B20 | 2.48
21 | B21 | 4.06
22 | B22 | 5.3
23 | B23 | 5.55
24 | B24 | 4.92

Row | Binder | Kd [nM]
25 | B25 | 4.2
26 | B26 | 5.01
27 | B27 | 4.95
28 | B28 | 5.17
29 | B29 | 3.81
30 | B30 | 4.89
31 | B31 | 5.09
32 | B32 | 4.02
33 | B33 | 4.94
34 | B34 | 4.12
35 | B35 | 5.2
36 | B36 | 4.93
37 | B37 | 0.0039
38 | B38 | 3.74
39 | B39 | 4.36
40 | B40 | 0.00827
41 | B41 | 1.15
42 | B42 | 2.16
43 | B43 | 5.6
44 | B44 | 5.4
45 | B45 | 1.08
46 | B46 | 5.32
47 | B47 | 5.74
48 | B48 | 0.67
